In series [1] the target is T1, TIA-1 RRM2,3 (UniProt P31483-2 93-274).
T1 sequence: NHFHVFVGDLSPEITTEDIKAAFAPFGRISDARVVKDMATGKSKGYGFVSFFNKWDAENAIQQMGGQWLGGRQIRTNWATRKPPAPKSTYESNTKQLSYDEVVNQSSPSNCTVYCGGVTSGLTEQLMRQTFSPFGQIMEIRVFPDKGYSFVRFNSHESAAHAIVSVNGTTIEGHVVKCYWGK
The experiment in a line: fluorescence anisotropy; 12 mM arginine; FA: 10 mM HEPES pH 7.2, 50 mM NaCl, 12 mM arginine (further 1 mM component truncated in the text); temperature not stated; KD from two independent measurements. The settings on record: protein: recombinant; tags: 6xHis removed with thrombin; label: 5'-fluorescein; single strand. Background: In fluorescence polarisation assays a small probe gives low polarisation when free and higher when bound to something large.

For series [2], the target named is FUS-RBD (RGG1-RRM-RGG2-ZnF-RGG3) (UniProt P35637 242-526). Described as above. The settings on record: protein: recombinant; tags: N-terminal GB1-6xHis; label: 5'-fluorescein; single strand.
FUS-RBD (RGG1-RRM-RGG2-ZnF-RGG3), sequence (P35637 242-526): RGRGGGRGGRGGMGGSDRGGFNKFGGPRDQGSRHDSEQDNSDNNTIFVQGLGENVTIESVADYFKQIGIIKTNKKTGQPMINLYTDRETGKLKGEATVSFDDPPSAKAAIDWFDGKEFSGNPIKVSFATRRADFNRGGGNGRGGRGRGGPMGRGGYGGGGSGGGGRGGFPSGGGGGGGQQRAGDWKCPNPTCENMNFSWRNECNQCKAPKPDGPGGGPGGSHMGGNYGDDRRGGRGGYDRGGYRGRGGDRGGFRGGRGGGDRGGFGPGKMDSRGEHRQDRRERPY

For the molecule TTTTTACTCC (ssDNA) [TC1], the Kd (in general, the free concentration of one partner at which half of the binding sites on the other are occupied at equilibrium, for simple one-to-one binding) is 2 nM in series [1] and 30 nM in series [2].

For the origin of these results see paper PMC9329571, “Regulation of TIA-1 Condensates: Zn2+ and RGG Motifs Promote Nucleic Acid Driven LLPS and Inhibit Irreversible Aggregation”.
